# Test results: the RNAGym collection of RNA variant scans (doi:10.7554/elife.80360)
# B1: CPEB3 Ribozyme (parent)
# chain: GGGGGCCACAGCAGAAGCGUUCACGUCGCGGCCCCUGUCAGAUUCUGGUGAAUCUGCGAAUUCUGCUGU
# Variants of: B1
# Assay: self-cleavage, relative activity (ratio to wild type); higher = more cleavage; co-transcriptional
row,Variant,self-cleavage
1,G4C G68U,0.98
2,G4U C63G,0.292
3,G4C U26G,0.217
4,G4C U26A,0.125
5,G5C A52C,0.259
6,G5C A52G,0.287
7,G5C A52U,0.123
8,G5A A13C,0.637
9,G5A U53G,0.335
10,G4U C34G,0.113
11,G4U C34U,0.361
12,G4U C34A,0.167
13,G5A G11C,0.578
14,G5A G11U,0.778
15,G5A U44C,0.858
16,G5A U44G,0.631
17,G5A U44A,0.655
18,G5A C63U,0.915
19,G5A C63A,0.427
20,G5A U61C,0.299
21,G5A U61A,0.351
22,G5A U61G,0.468
23,G4U G48A,0.856
24,G5A C34G,0.155

row,Variant,self-cleavage
1,G4U A23G,0.502
2,G5A A52G,0.92
3,G5A A52C,0.837
4,G5A A52U,0.891
5,G4U U62G,0.349
6,G4U U62C,0.369
7,G5C A42C,0.207
8,G5C A42U,0.265
9,G5A U55C,0.403
10,G5A U55A,0.69
11,G5A A42U,0.71
12,G5A A42G,0.812
13,G5A A16U,0.639
14,G5A A16G,0.811
15,G4U U43G,0.389
16,G4U U43A,0.455
17,G5A C9A,1.01
18,G5A C7G,0.0847
19,G5A C7U,0.501
20,G5A C7A,0.134
21,G5A U64A,0.71
22,G5A U64C,0.676
23,G5A U64G,0.729
24,G5C C7G,0.293

row,Variant,self-cleavage
1,G5C C7A,0.684
2,G4U C7U,0.233
3,G5A G30U,0.125
4,G4C U20A,0.0691
5,G4C U20G,0.072
6,G4C U20C,0.0911
7,G5A C66G,0.826
8,G5A C66A,0.727
9,G4U G31U,0.126
10,G4U G31C,0.0584
11,G4U G58C,0.457
12,G4U G58A,0.377
13,G4U C54G,0.21
14,G4U C54A,0.289
15,G4U C54U,0.709
16,G5C A8U,0.156
17,G5C A8C,0.199
18,G5C A8G,0.242
19,G4C U38A,0.639
20,G4C U38G,0.152
21,G4U C22A,0.065
22,G4U C22U,0.0611
23,G4U C66U,0.771
24,G4U C66A,0.468

row,Variant,self-cleavage
1,G4U A60U,0.219
2,G4U A60C,0.171
3,G4U A16U,0.235
4,G4U C57U,0.211
5,G4U C57G,0.165
6,G5A U20C,0.109
7,G5A U20G,0.111
8,G4U U49G,0.357
9,G5A A15U,0.355
10,G5A A15C,0.263
11,G4U G68U,0.928
12,G5C C9A,0.386
13,G5C C9G,0.487
14,G4U A59C,0.146
15,G4U A59U,0.193
16,G4U U55G,0.203
17,G4U U55C,0.298
18,G4U U55A,0.496
19,G4U A51G,0.692
20,G4U A51U,0.772
21,G4U A51C,0.524
22,G5A G31A,0.158
23,G5A G31C,0.118
24,G5A G31U,0.221

row,Variant,self-cleavage
1,G5A G25U,0.0968
2,G5A G25A,0.114
3,G5A G25C,0.137
4,G4U A15U,0.272
5,G4U A8U,0.737
6,G4U G41C,0.126
7,G4U U69A,0.952
8,G4C U62C,0.213
9,G4C U62G,0.311
10,G5A G17U,0.152
11,G5A G28C,0.124
12,G5A G28U,0.144
13,G5A G28A,0.1
14,G4C G58A,0.278
15,G4C G58U,0.71
16,G4C G58C,0.226
17,G5A U36A,0.146
18,G5A A51G,0.849
19,G5A A51U,0.859
20,G5A A51C,0.82
21,G5A G68A,0.976
22,G5A G68C,0.947
23,G5A G68U,0.948
24,G4U U53C,0.323

row,Variant,self-cleavage
1,G4U U53A,0.412
2,G4U U53G,0.226
3,G4U G28C,0.0704
4,G5A U49A,0.926
5,G4U G37C,0.169
6,G4U G37A,0.144
7,G4U C27U,0.114
8,G4U C27A,0.11
9,G4C U53C,0.239
10,G4C U53A,0.316
11,G4U U64G,0.589
12,G4U U64C,0.602
13,G4U U64A,0.535
14,G4U A13U,0.383
15,G4U A13C,0.336
16,G5A C57U,0.304
17,G5A C57G,0.234
18,G5A C57A,0.224
19,G5A A40G,0.866
20,G5A A40C,0.213
21,G5C A10C,0.176
22,G5C A10G,0.289
23,G5C A51G,0.228
24,G5C A51C,0.152

row,Variant,self-cleavage
1,G5C A51U,0.269
2,G5A A10G,0.915
3,G5A A10U,0.953
4,G5A A10C,0.914
5,G5A C45G,0.823
6,G5A C45A,0.832
7,G5A C45U,0.913
8,G4C U64A,0.457
9,G4C U64C,0.426
10,G5A C29U,0.303
11,G5A C29A,0.229
12,G5A C18G,0.0833
13,G5A C18U,0.483
14,G4C U43A,0.251
15,G4U C33A,1
16,G4U C33U,0.975
17,G5C A23U,0.333
18,G5C A23G,0.144
19,G5C A23C,0.228
20,G4U C29A,0.0776
21,G5A C35A,0.203
22,G5A C35U,0.365
23,G5A C35G,0.134
24,G5A C54U,0.893

row,Variant,self-cleavage
1,G5A C54G,0.394
2,G5A C54A,0.546
3,G5A G37U,0.165
4,G5A G37C,0.171
5,G4U G11C,0.228
6,G4U G11A,0.571
7,G4U G11U,0.492
8,G4C U69G,0.914
9,G4C U69A,0.877
10,G5A U26G,0.611
11,G5A U26A,0.498
12,G5A U26C,0.853
13,G4U C39A,0.322
14,G5A G56U,0.772
15,G5A G56A,0.759
16,G5A G56C,0.407
17,G4U A40U,0.313
18,G4U A40G,0.542
19,G5A U21A,0.837
20,G5A U21C,0.56
21,G5C C6G,0.0983
22,G4U C18G,0.0879
23,G4U C18U,0.257
24,G4U C12U,0.819

row,Variant,self-cleavage
1,G4U C12A,0.255
2,G4U C12G,0.182
3,G5A G48A,0.918
4,G4U C6A,0.0552
5,G4U C6G,0.0353
6,G5A C39G,0.752
7,G5A C39A,0.533
8,G5A A60U,0.247
9,G5A A60G,0.515
10,G5A A60C,0.251
11,G4U U20C,0.14
12,G4U U20G,0.0683
13,G4U U20A,0.121
14,G4U G50A,0.752
15,G5A C27A,0.141
16,G5A C27U,0.201
17,G5A C27G,0.104
18,G4U U38C,0.525
19,G4U U38A,0.73
20,G4U A10U,0.983
21,G5C A40C,0.213
22,G5C A40G,0.171
23,G4U C35U,0.128
24,G4U C35G,0.101

row,Variant,self-cleavage
1,G4U C35A,0.114
2,G5A C32A,0.847
3,G5A U43A,0.721
4,G5A U43G,0.578
5,G5A U43C,0.77
6,G5A G65C,0.532
7,G5A G65A,0.812
8,G4U G14C,0.205
9,G4U G14U,0.241
10,G5A U67G,0.957
11,G5A U67C,0.963
12,G4U U46C,0.751
13,G4U U46G,0.803
14,G4U U46A,0.746
15,G4C U61G,0.178
16,G4C U61C,0.169
17,G4U U61C,0.174
18,G4U G30U,0.103
19,G4U G30C,0.108
20,G4U A52G,0.722
21,G4U A52U,0.677
22,G4U A52C,0.519
23,G5A G47C,0.914
24,G5A G47A,0.964

row,Variant,self-cleavage
1,G4U G17A,0.114
2,G4C U44G,0.265
3,G5A G41C,0.359
4,G5A G41A,0.512
5,G5A G41U,0.488
6,G4C U21C,0.215
7,G4C U21A,0.427
8,G4C U21G,0.0719
9,G4C U67A,0.902
10,G4C U67G,0.848
11,G4C U67C,0.824
12,G4U A42G,0.655
13,G4U A42U,0.526
14,G4U U26G,0.3
15,G5A C6A,0.103
16,G5A C6U,0.189
17,G4U G65A,0.521
18,G4U U21C,0.4
19,G4U U21A,0.654
20,G5A G50C,0.902
21,G5A G50A,0.941
22,G4U G5U,0.0723
23,G5A U62C,0.423
24,G5A C22G,0.0902

row,Variant,self-cleavage
1,G5A C22U,0.129
2,G4U C45G,0.587
3,G4U C45U,0.743
4,G4U C45A,0.554
5,G4C U36C,0.589
6,G4C U36A,0.0958
7,G4C U36G,0.481
8,G5A G19A,0.12
9,G5A G19C,0.0992
10,G4U C9A,0.982
11,G4U C9G,0.974
12,G5A U69G,1.03
13,G5A U69A,0.994
14,G5A U69C,1.05
15,G4U C24G,0.0638
16,G4U C24A,0.122
17,G4U C32G,0.129
18,G4U C32A,0.135
19,G4U C32U,0.436
20,G5A U46C,0.945
21,G4U U67C,0.946
22,G4U U67A,0.9
23,G5A G14U,0.365
24,G5A G14A,0.325

row,Variant,self-cleavage
1,G5A G14C,0.159
2,G4C U55C,0.237
3,G4C U55A,0.261
4,G4U G56C,0.339
5,G4U G56U,0.559
6,G5A A8U,0.894
7,G5A A8G,0.725
8,G5A A8C,0.953
9,G5A C12A,0.532
10,G5A C12G,0.488
11,G5C A59G,0.229
12,G5A U38A,0.816
13,G5A U38C,0.749
14,G5A U38G,0.129
15,G4C G50C,0.621
16,G4C U46C,0.619
17,G4U G25C,0.116
18,G4U G25A,0.101
19,G4U G25U,0.0695
20,G5A A23U,0.931
21,G5A C33A,0.296
22,G5A C33G,0.136
23,G5A G58A,0.723
24,G5A G58U,0.906

row,Variant,self-cleavage
1,G5A G58C,0.758
2,G5A A59G,0.753
3,G5A A59C,0.259
4,G4U G19A,0.0808
5,G4U G19U,0.112
6,G4U G19C,0.0957
7,G5A C24G,0.0961
8,G5A C24A,0.341
9,G5A C24U,0.378
10,G4C G65A,0.412
11,G4C G65C,0.242
12,G4C G65U,0.294
13,G4U U36C,0.651
14,G4U U36A,0.122
15,G4U U36G,0.492
16,G4U G47A,0.804
17,G4U G47U,0.873
18,G4U G47C,0.793
19,G4C G56A,0.289
20,G4C G56C,0.246
21,G4U U44G,0.384
22,G4U U44C,0.552
